The values below come from PMC13082707, “Role of the C-terminal modules of Klebsiella phage KP32 receptor-binding protein gp38 in protein and phage functionality” (PLOS Pathogens, 2026).

For data set [1], the target named is GFP_KP32gp38_LIN-CBM-LEC (Klebsiella phage KP32). The data set is described as follows: SEC-MALS; SEC-MALLS of selected KP32gp38 variants to assess the molecular weight of their oligomeric state, buffer and concentrations not told. (SEC sorts molecules by how far they enter the pores of the column.)
Data set [2] addresses KP32gp38_CP-E-LIN_K11gp0043_CBM-LEC (Klebsiella phage KP32 | Klebsiella phage K11). The data set is described as above.
The target in data set [3] is KP32gp38_CP-E_K11gp0043_LIN-CBM-LEC (Klebsiella phage KP32 | Klebsiella phage K11). The description is as above.
Data set [4] concerns the target KP32gp38_LEC (Klebsiella phage KP32). The description is as above.
The target of data set [5] is KP32gp38_LIN-CBM-LEC (Klebsiella phage KP32). The description is as above.
The target of data set [6] is KP32gp38_Δ(LIN-CBM) (Klebsiella phage KP32). Described as above.
Data set [7] deals with KP32gp38_ΔCBM (Klebsiella phage KP32). Described as above.
Data set [8] concerns the target KP32gp38_ΔLEC (Klebsiella phage KP32).
Data set [9] has the same target. The data set can be described thus: SEC-MALS; SEC-MALLS of selected KP32gp38 variants to assess the molecular weight of their oligomeric state, buffer and concentrations not told.
Data set [10] concerns the molecule itself. The description is as above.

A word on the stoichiometry N: it is the number of molecules, sites or subunits per partner or assembly. The molecule “GFP_KP32gp38_LIN-CBM-LEC (domain or fragment)” yielded a stoichiometry N in data set [1] of 3.

The molecule KP32gp38_CP-E-LIN_K11gp0043_CBM-LEC displayed a stoichiometry N in data set [2] of 3. The molecule KP32gp38_CP-E_K11gp0043_LIN-CBM-LEC registered a stoichiometry N in [3] of 3. Take KP32gp38_LEC (domain or fragment): the stoichiometry N in data set [4] was greater than 25.

Consider “KP32gp38_LIN-CBM-LEC (domain or fragment)”, for which, in data set [5], the stoichiometry N turned out to be 3. In the case of “KP32gp38_Δ(LIN-CBM) (domain or fragment)”, the stoichiometry N in data set [6] is 3. As to KP32gp38_ΔCBM (domain or fragment), the stoichiometry N in data set [7] stood at 3. KP32gp38_ΔLEC (domain or fragment) showed an enzymatic activity (halo formation on K21/KL163 lawns) compared to the WT in [8] of 1000 fold. In data set [9], the percent dimers came out at 10% and the stoichiometry N stood at 2.

B1: KP32gp38_WT, receptor-binding protein 2 (RBP2) of Klebsiella phage KP32 (natural protein, UniProt D1L2X1 1-576, looked up)
chain: MLDNFNQPKGSTIGVLKDGRTIQEAFDSLPRLESFSGSTATDKLRAAITLGVSEVAIGPVEGNGGRPYEFGDVVIPYPLRIVGCGSQGINVTKGTVLKRSAGASFMFHFTGEGQAQRPMGGGLFNINLNGDTATALGDIIKVTQWSYFKANNCAFQNMAGWGIRLKDVMESNISGNLFRRLGGPSGGGILFDDVRSAVTDNVNNLHIEDNTFALMSGPWIGSTANSNPDLIWIVRNKFEFDGTPAAPNTVDSYVLDFQQLSRAFIQDNGFTHFTTERNRYVGVLRVGATAVGTIKFEDNLLFACESAGLIAGGIVVSRGNVNNQGSATTAIKQFTNTSSKLCKLERVINVQSNGNVSVGQQILPDGYINMAELPGNTRLPSEYDADGETTSVLRVPANTQVRQWSVPKMYKDGLTVTKVTVRAKGAAAGAILSLQSGSTVLSTKSIDAGVWKNYVFYVKANQLQETLQLRNTGTADVLADGMVFGKVDYIDWDFAIAPGTLAAGAKYTTPNQSYLDVAGMRVQAVSIPMFDGPTTGLQVWVEATSANGSFVVVMKNDTGSELVTTVTRCRVRAFVS
notes: KP32gp38 (RBP2, capsule depolymerase/tailspike) of Klebsiella phage KP32; domains CP-E-LIN-CBM-LEC; Expressed from pVTD3 (C-terminal His-tag); also called KP32gp38 WT depolymerase; source: E. coli BL21(DE3), purified (His GraviTrap or HisPur Ni-NTA)
Take B1: in data set [10], the “stoichiometry N” value was 3.
